This data set has as its target tau 2N4R (tau-441) wild type (human, UniProt P10636-8 1-441). The data set can be described thus: EMSA.

B1: 24-bp dsDNA (dsDNA)
DNA 1: TCGACACGGAAATGTTGAATACTA
DNA 2: TAGTATTCAACATTTCCGTGTCGA
Regarding B1, the binding result is listed as “binds”.

(Values after article PMC12855940.)
